Measurements: patent US9283300B2, “Use of midkine protein and the protein-containing medical device” (GENERAL REGENERATIVES, LTD, priority 2009, dated 2016)

Tests used:
[1] = tested on: cartilage of normal New Zealand rabbit (articular, ear, tracheal, intervertebral disc); test: rhMK effect on cartilage thickness of normal rabbits (subcutaneous injection, histology); type: in vivo; details: rhMK 92.5 μg/kg s.c. daily for two weeks
Method: Method. 8-weeks-old male C57BL/6J mice were injected subcutaneously with recombinant human MK (rhMK) or control saline. The injection volume was 0.5 ml, given daily for a week. The mice were grouped (3 animals per group): Saline (NS) group, rhMK groups injected with various dosages at 10, 33, 100, 300, 900 μg/kg. Rats were injected with saline or rhMK (175 μg/kg) daily for a week. Rabbits were injected with saline or rhMK (92.5 μg/kg) daily for two week. Histological observation and evaluation. The knee joint tissues of all mice and rats were fixed in 10% (v/v) formalin for 1 day, the tissues of rabbits were fixed for 2 days. The fixed tissues were subjected to demineralization in liquid (7% AlCl3.6H2O, 5% methanoic acid, 8.5% HCl) 4 days for mouse and rats issues, and 10 days for rabbit tissues. The demineralized tissues were subjected to dehydration by gradient ethanol, and treated for transparency by xylene, and embedded in wax. Tissue sections were prepared by the paraffin slicing machine (Laica), and stained with hemotoxylin/eosin or Safranine O/fast green staining. Slides were observed under microscope and analyzed. The thickness of cartilage tissues were measured by the vernier caliper on microscope. Three tissue sections from each sample were measured and analyzed statisticaly. The distance between surface of cartilage to subchondral tide line was measured at ½ position of femoral condyle to denote the thickness of knee-joint cartilage. The thickness of cartilage at central part of ears was measured to denote the thickness of ear elastic cartilage. The distance between out surface of annulus to nucleus of the intervertebral disc was measured to denote the thickness of thoracic intervertebral disc (T2-3). To verify the results of rhMk in mice, we performed the same experiments in vivo using commonly used laboratory animals, rat and rabbit. Rats were injected subcutaneously with rhMK at 175 μg/kg/day for one week, and rabbits was injected subcutaneously 92.5 ug/kg/day for two weeks. […] The injection dose of rhMK: mice was injected subcutaneously 300 μg/kg daily for a week; rats were injected 175 μg/kg daily for a week; and New Zealand rabbits was injected 92.5 μg/kg daily for two weeks. Three animals per group were analyzed.

[2] = tested on: full-thickness defect of rabbit knee articular cartilage; test: Full-thickness cartilage defect of rabbit knee joint, intra-articular rhMK; type: in vivo, New Zealand white rabbits; details: rabbit knee full-thickness cartilage damage model, 18 samples, 13 recovered; no recovery in saline control sides, P<0.01
Method: Method. 2-month-old male New Zealand white rabbits (2.0˜2.5 kg weight) were anesthetized with 3% pentobarbital sodium (30 mg/kg) by ear vein injection. After anesthesia, prepare the skin on both sides of the knees were prepared for sterilization. With conventional surgical sterilization and under sterile conditions, the inner side of knees was cut to expose the femoral condyle surface. The full-thickness cartilage injury was made on the femoral condyle surface for both sides of the rabbit knees using an electrical drill. The cartilage hole was 3 mm in diameter and 4 mm in depth. The wound was closed with 4-0 lines. 400,000 units penicillin was injected daily for one week to prevent the wound site infection. 24 hours after surgery, normal saline or rhMK was injected into the knee articular cavity. The injection volume was 0.5 ml, three times a week for 2 weeks. rhMK was injected into one side of the rabbit knee joint, the other side was injected with saline as control. The rabbits were kept in cages and moved freely without fixation of the injured knees. After 2, 4, 6 and 12 weeks, rabbits were sacrificed. Cartilage tissues of the knee joint were removed for routine biopsy. The tissue sections were prepared for H&E, and fast green—Safranin O staining. The histological observation and evaluation were conducted under microscope.

[3] = tested on: dedifferentiated rat chondrocytes in high-density culture; test: Redifferentiation of dedifferentiated chondrocytes in high-density culture (Col2a1 expression); type: cell-based
Method: 5. High density culture of chondrocytes. The chondrocytes were harvested and suspended in DMEM containing 10% FBS. The cells were seeded at 4×10^5 cells/well into a 24-well plate, and experiment was divided into two groups: control group and experimental group (with 3 μg/m. 1 rhMK). When the cells reached confluence, they were cultured for additional 14 days. The culture medium was changed every two days. After the culture, some of the cells were collected for RNA extraction, and some were treated with trypsin and 0.2% type II collagenase at 37° C. for 30 min. The cells were cytospined onto glass slide and stored at −80° C. 6. Immunohistochemical staining. The cytospined glass slides covered with the cultured chondrocytes under various conditions were stored at −80° C. They were fixed in cold acetone for 10 min, treated sequentially in PBS for 5 min, in 3% H2O2 (in ddH2O) for 10 min at room temperature, and finally in ddH2O for 5 min. The slides were covered with 5% BSA (bovine serum albumine) for 20 min at room temperature. The excess serum was removed and the sections were covered with antibody against type II collagen (dilution 1:100) for 30 min at 37° C. […] RNA extraction and semi-quantitative PCR. […] PCR products were separated on 1.5% (w/v) agarose gels and quantified after staining with ethidium bromide in comparison with internal control gene expression of β-actin.

B1: rhMK: recombinant human midkine mature protein (SEQ ID NO.1) expressed in E. coli and purified by ion-exchange chromatography (protein, listed as Homo sapiens)
chain: MKKKDKVKKGGPGSECAEWAWGPCTPSSKDCGVGFREGTCGAQTQRIRCRVPCNWKKEFGADCKYKFENWGACDGGTGTKVRQGTLKKARYNAQCQETIRVTKPCTPKTKAKAKAKKGKGKD
Cartilage thickness, Ear [1]: 605.4 ± 5.4 µm | Cartilage thickness, Femoral condyle [1]: 612 ± 6.4 µm | Cartilage thickness, Intervertbral disc (T2-3) [1]: 1520 ± 54 µm | Cartilage thickness, Trachea [1]: 495 ± 6.5 µm | rate of recovery in the rhMK treated side [2]: 72.2% | effect on Col2a1 re-expression ([3]; P3 fibrochondrocytes cultured in high-density): no effect | Col2a1 expression level in high-density cultures with rhMK ([3]; P6 articular chondrocyte and P3 auricular chondrocyte): significantly inhibited
